B1: XRCC4(1–140) (domain or fragment)
chain: MERKISRIHLVSEPSITHFLQVSWEKTLESGFVITLTDGHSAWTGTVSESEISQEADDMAMEKGKYVGELRKALLSGAGPADVYTFNFSKESCYFFFEKNLKDVSFRLGSFNLEKVENPAEVIRELICYCLDTIAENQAK
B2: XLF(1–224) (domain or fragment)
chain: MEELEQGLLMQPWAWLQLAENSLLAKVFITKQGYALLVSDLQQVWHEQVDTSVVSQRAKELNKRLTAPPAAFLCHLDNLLRPLLKDAAHPSEATFSCDCVADALILRVRSELSGLPFYWNFHCMLASPSLVSQHLIRPLMGMSLALQCQVRELATLLHMKDLEIQDYQESGATLIRDRLKTEPFEENSFLEQFMIEKLPEACSIGDGKPFVMNLQDLYMAVTTQ

How the values were obtained:
[1] = target: full-length XLF (XLF^FL) (human, UniProt Q9H9Q4 1-299); assay: SEC
[2] = target: the molecule itself; assay: crystal structure

Binder | binding result [1] | binding result [2]
B1 | binds | –
B2 | – | binds

Reference: publication PMC3173232 (The Journal of Biological Chemistry, 2011)
